# Measured values reported in patent US7384773.
# Molecular target: recombinant soluble human beta secretase expressed in CHO-K1 cells (Hu_Asp-2LΔTM(His)6), not treated with HIV protease (UniProt P56817)
substance,measurement,value
HIV-1 protease,cleavage of the F39-V40 bond (N-terminal sequence analysis),nearly 100% cleavage of the F^39-V^40 bond occurred
